This data set can be described thus: pH-dependent insertion into POPC liposome bilayer monitored by CD. As to conditions: CD ellipticity vs pH, 7 µM agent, 1.4 mM POPC, 25°C, Henderson-Hasselbalch fit. The format is physicochemical. How it is done:
The interactions of pHLIP-mMSA and 2pHLIP-dMSA with liposomes were investigated by recording the construct’s fluorescence and circular dichroism (CD) using a PC1 spectrofluorometer (ISS) and a MOS-450 spectrometer (Bio-Logic Science Instruments), respectively, with temperature control set to 25°C. Liposomes, constituting of large unilamellar vesicles were prepared by extrusion. 1-palmitoyl-2-oleoyl-sn-glycero-3-phosphocholine (POPC) lipids (Avanti Polar Lipids) in chloroform were desolvated on a rotary evaporator and dried under vacuum for a minimum of 2 h. The phospholipid film was rehydrated in 2 mM citrate phosphate buffer, pH 7.4, vortexed, and passed through the extruder (using a 50 nm membrane pore size) 21 times.
Fluorescence spectra were recorded from 310 nm to 390 nm at an excitation wavelength of 295 nm and 1.0 mm sized slits. […] CD spectra were recorded from 190 to 260 nm with a step size of 1 nm. […]
The pH-dependent insertion of pHLIP-mMSA or 2pHLIP-dMSA into the lipid bilayer of POPC liposomes was studied by monitoring changes in the molar ellipticity as a function of pH. After the addition of aliquots of citric acid, the pHs of solutions containing pHLIP-mMSA/2pHLIP-dMSA and POPC liposomes were measured using an Orion PerHecT ROSS Combination pH Micro Electrode and an Orion Dual Star pH and ISE Benchtop Meter. […]

In the case of “ADQDNPWRAYLDLLFPTDTLLLDLLWCG [2pHLIP-dMSA]”, the “cooperativity (n) of insertion into POPC bilayer” value came to 1.2 and the “pK (mid-point) of insertion into POPC bilayer” value is 6.0.

Values taken from publication PMC10940318, “Targeted intracellular delivery of dimeric STINGa by two pHLIP peptides for treatment of solid tumors” (Frontiers in Pharmacology, 2024).
